Measurements reported in PMC7401798.

Tests used:
[1] = molecular target: Taxol-stabilized microtubules (UniProt P02550); assay: co-sedimentation
HIS-TAN1-GFP (maize) = assay: pull-down
Chain of HIS-TAN1-GFP (maize) (C0PM98 whole entry): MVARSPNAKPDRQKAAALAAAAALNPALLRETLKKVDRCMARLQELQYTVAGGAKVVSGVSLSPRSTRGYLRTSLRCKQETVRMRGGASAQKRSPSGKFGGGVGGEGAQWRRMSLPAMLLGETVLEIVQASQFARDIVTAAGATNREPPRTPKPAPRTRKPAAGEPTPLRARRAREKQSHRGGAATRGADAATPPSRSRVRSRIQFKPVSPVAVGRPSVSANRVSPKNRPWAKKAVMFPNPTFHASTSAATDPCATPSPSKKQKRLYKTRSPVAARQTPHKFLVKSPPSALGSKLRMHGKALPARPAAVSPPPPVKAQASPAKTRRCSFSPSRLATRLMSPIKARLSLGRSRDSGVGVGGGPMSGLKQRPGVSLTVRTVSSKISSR

Chain of Atto488-tagged HIS-TAN1-GFP (natural protein) (C0PM98 whole entry): as above
Chain of HIS-TAN1-GFP (natural protein) (C0PM98 whole entry): as above

apparent affinity [1] [µM]	Substance	also measured
	6xHIS-tagged ZmTAN1 (TANGLED1) (natural protein)	K0.5 [1]: 1.08 µM
0.05	Atto488-tagged HIS-TAN1-GFP (natural protein)	
0.595	HIS-TAN1-GFP (natural protein)	
	tubulin dimers (from UniProt P02550 1-451) (complex)	stoichiometry N (tubulin dimers per HIS-TAN1-GFP) (HIS-TAN1-GFP (maize)): 2
